In patent publication US20260201008A1, “SECRETIN-DERIVED GLP1R SELECTIVE AGONISTS” (GUBRA A/S, priority 2023, published 2026):
Square brackets hold non-standard residues; d marks the D form. Ends that are not written are not given here. Aib = CC(C)(N)C(=O)O

Key:
[1] = biological target: human GLP-1 receptor (hGLP1R) (human, UniProt P43220 24-463); experiment: cell-based or functional assay
[2] = biological target: human secretin receptor (hSCTR) (human, UniProt P47872 23-440); experiment: cell-based or functional assay
human secretin receptor (hSCTR), sequence (P47872 23-440): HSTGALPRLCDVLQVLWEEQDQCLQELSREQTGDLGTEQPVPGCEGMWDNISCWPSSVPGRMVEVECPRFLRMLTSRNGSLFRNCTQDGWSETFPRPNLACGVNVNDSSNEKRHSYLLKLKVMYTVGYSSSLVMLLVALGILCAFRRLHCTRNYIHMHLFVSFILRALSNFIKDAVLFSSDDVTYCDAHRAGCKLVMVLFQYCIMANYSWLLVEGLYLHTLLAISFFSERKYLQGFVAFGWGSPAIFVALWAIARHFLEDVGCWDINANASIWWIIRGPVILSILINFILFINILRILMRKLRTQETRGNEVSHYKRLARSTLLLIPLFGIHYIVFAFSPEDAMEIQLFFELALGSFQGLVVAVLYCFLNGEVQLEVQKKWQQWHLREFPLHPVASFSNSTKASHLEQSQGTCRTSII

H[Aib]EGTFTSDVSYLKEEA[Aib]SQRFLEHLV-NH2 (not fully specified (residue 14)) [SEQ ID NO: 134] was tested, and the “pEC50 hGLPR1” value [1] was 11.1 -log M and the “pEC50 hSCTR” value [2] was 5.6 -log M.

B1: SEQ ID NO: 124 (peptide)
peptide: H[Aib]EGTFTSDPSRLLEGAALQRFIQWLV-NH2
modifications: N-terminus assumed
SMILES: CC[C@H](C)[C@H](NC(=O)[C@H](Cc1ccccc1)NC(=O)[C@H](CCCNC(=N)N)NC(=O)[C@H](CCC(N)=O)NC(=O)[C@H](CC(C)C)NC(=O)[C@H](C)NC(=O)[C@H](C)NC(=O)CNC(=O)[C@H](CCC(=O)O)NC(=O)[C@H](CC(C)C)NC(=O)[C@H](CC(C)C)NC(=O)[C@H](CCCNC(=N)N)NC(=O)[C@H](CO)NC(=O)[C@@H]1CCCN1C(=O)[C@H](CC(=O)O)NC(=O)[C@H](CO)NC(=O)[C@@H](NC(=O)[C@H](Cc1ccccc1)NC(=O)[C@@H](NC(=O)CNC(=O)[C@H](CCC(=O)O)NC(=O)C(C)(C)NC(=O)[C@@H](N)Cc1c[nH]cn1)[C@@H](C)O)[C@@H](C)O)C(=O)N[C@@H](CCC(N)=O)C(=O)N[C@@H](Cc1c[nH]c2ccccc12)C(=O)N[C@@H](CC(C)C)C(=O)N[C@H](C(N)=O)C(C)C
In the case of B1, the “pEC50 hGLPR1” value [1] is reported as 8.6 -log M and the “pEC50 hSCTR” value [2] is reported as 5.3 -log M.

B2: SEQ ID NO: 126 (peptide)
peptide: H[Aib]EGTFTSDPSFLLEGAALQRFIQWLV-NH2
modifications: N-terminus assumed
SMILES: CC[C@H](C)[C@H](NC(=O)[C@H](Cc1ccccc1)NC(=O)[C@H](CCCNC(=N)N)NC(=O)[C@H](CCC(N)=O)NC(=O)[C@H](CC(C)C)NC(=O)[C@H](C)NC(=O)[C@H](C)NC(=O)CNC(=O)[C@H](CCC(=O)O)NC(=O)[C@H](CC(C)C)NC(=O)[C@H](CC(C)C)NC(=O)[C@H](Cc1ccccc1)NC(=O)[C@H](CO)NC(=O)[C@@H]1CCCN1C(=O)[C@H](CC(=O)O)NC(=O)[C@H](CO)NC(=O)[C@@H](NC(=O)[C@H](Cc1ccccc1)NC(=O)[C@@H](NC(=O)CNC(=O)[C@H](CCC(=O)O)NC(=O)C(C)(C)NC(=O)[C@@H](N)Cc1c[nH]cn1)[C@@H](C)O)[C@@H](C)O)C(=O)N[C@@H](CCC(N)=O)C(=O)N[C@@H](Cc1c[nH]c2ccccc12)C(=O)N[C@@H](CC(C)C)C(=O)N[C@H](C(N)=O)C(C)C
For B2, the “pEC50 hGLPR1” value [1] was 8.1 -log M and the “pEC50 hSCTR” value [2] was 5.7 -log M.

B3: SEQ ID NO: 127 (peptide)
peptide: H[Aib]EGTFTSDPSWLLEGAALQRFIQWLV-NH2
modifications: N-terminus assumed
SMILES: CC[C@H](C)[C@H](NC(=O)[C@H](Cc1ccccc1)NC(=O)[C@H](CCCNC(=N)N)NC(=O)[C@H](CCC(N)=O)NC(=O)[C@H](CC(C)C)NC(=O)[C@H](C)NC(=O)[C@H](C)NC(=O)CNC(=O)[C@H](CCC(=O)O)NC(=O)[C@H](CC(C)C)NC(=O)[C@H](CC(C)C)NC(=O)[C@H](Cc1c[nH]c2ccccc12)NC(=O)[C@H](CO)NC(=O)[C@@H]1CCCN1C(=O)[C@H](CC(=O)O)NC(=O)[C@H](CO)NC(=O)[C@@H](NC(=O)[C@H](Cc1ccccc1)NC(=O)[C@@H](NC(=O)CNC(=O)[C@H](CCC(=O)O)NC(=O)C(C)(C)NC(=O)[C@@H](N)Cc1c[nH]cn1)[C@@H](C)O)[C@@H](C)O)C(=O)N[C@@H](CCC(N)=O)C(=O)N[C@@H](Cc1c[nH]c2ccccc12)C(=O)N[C@@H](CC(C)C)C(=O)N[C@H](C(N)=O)C(C)C
For B3, the “pEC50 hGLPR1” value [1] was 8.1 -log M and the “pEC50 hSCTR” value [2] was 5.4 -log M.

For H[Aib]EGTFTSDVSYLWEEA[Aib]LQRFLEKLV-NH2 (not fully specified (residue 25)) [SEQ ID NO: 130], the “pEC50 hGLPR1” value [1] was 10.5 -log M and the “pEC50 hSCTR” value [2] was 6 -log M.

B4: SEQ ID NO: 129 (peptide)
peptide: H[Aib]EGTFTSDPSVLLEGAALQRFIQWLV-NH2
modifications: N-terminus assumed
SMILES: CC[C@H](C)[C@H](NC(=O)[C@H](Cc1ccccc1)NC(=O)[C@H](CCCNC(=N)N)NC(=O)[C@H](CCC(N)=O)NC(=O)[C@H](CC(C)C)NC(=O)[C@H](C)NC(=O)[C@H](C)NC(=O)CNC(=O)[C@H](CCC(=O)O)NC(=O)[C@H](CC(C)C)NC(=O)[C@H](CC(C)C)NC(=O)[C@@H](NC(=O)[C@H](CO)NC(=O)[C@@H]1CCCN1C(=O)[C@H](CC(=O)O)NC(=O)[C@H](CO)NC(=O)[C@@H](NC(=O)[C@H](Cc1ccccc1)NC(=O)[C@@H](NC(=O)CNC(=O)[C@H](CCC(=O)O)NC(=O)C(C)(C)NC(=O)[C@@H](N)Cc1c[nH]cn1)[C@@H](C)O)[C@@H](C)O)C(C)C)C(=O)N[C@@H](CCC(N)=O)C(=O)N[C@@H](Cc1c[nH]c2ccccc12)C(=O)N[C@@H](CC(C)C)C(=O)N[C@H](C(N)=O)C(C)C
B4 was tested, and the “pEC50 hGLPR1” value [1] was 8.1 -log M and the “pEC50 hSCTR” value [2] was 5 -log M.

For H[Aib]EGTFTSDVSYLKEEALLQRFLEHLV-NH2 (not fully specified (residue 14)) [SEQ ID NO: 132], the “pEC50 hGLPR1” value [1] was 10.7 -log M and the “pEC50 hSCTR” value [2] was 6.7 -log M.

For H[Aib]EGTFTSDVSYLKEEA[Aib]LQRFLEFLV-NH2 (not fully specified (residue 14)) [SEQ ID NO: 133], the “pEC50 hGLPR1” value [1] was 10.8 -log M and the “pEC50 hSCTR” value [2] was 6.4 -log M.

B5: SEQ ID NO: 125 (peptide)
peptide: H[Aib]EGTFTSDPS[Aib]LLEGAALQRFIQWLV-NH2
modifications: N-terminus assumed
SMILES: CC[C@H](C)[C@H](NC(=O)[C@H](Cc1ccccc1)NC(=O)[C@H](CCCNC(=N)N)NC(=O)[C@H](CCC(N)=O)NC(=O)[C@H](CC(C)C)NC(=O)[C@H](C)NC(=O)[C@H](C)NC(=O)CNC(=O)[C@H](CCC(=O)O)NC(=O)[C@H](CC(C)C)NC(=O)[C@H](CC(C)C)NC(=O)C(C)(C)NC(=O)[C@H](CO)NC(=O)[C@@H]1CCCN1C(=O)[C@H](CC(=O)O)NC(=O)[C@H](CO)NC(=O)[C@@H](NC(=O)[C@H](Cc1ccccc1)NC(=O)[C@@H](NC(=O)CNC(=O)[C@H](CCC(=O)O)NC(=O)C(C)(C)NC(=O)[C@@H](N)Cc1c[nH]cn1)[C@@H](C)O)[C@@H](C)O)C(=O)N[C@@H](CCC(N)=O)C(=O)N[C@@H](Cc1c[nH]c2ccccc12)C(=O)N[C@@H](CC(C)C)C(=O)N[C@H](C(N)=O)C(C)C
B5 was tested, and the “pEC50 hGLPR1” value [1] was 8.4 -log M and the “pEC50 hSCTR” value [2] was 5 -log M.

B6: SEQ ID NO: 123 (peptide)
peptide: H[Aib]EGTFTSDPSGLLEGAALQRFIQWLV-NH2
modifications: N-terminus assumed
SMILES: CC[C@H](C)[C@H](NC(=O)[C@H](Cc1ccccc1)NC(=O)[C@H](CCCNC(=N)N)NC(=O)[C@H](CCC(N)=O)NC(=O)[C@H](CC(C)C)NC(=O)[C@H](C)NC(=O)[C@H](C)NC(=O)CNC(=O)[C@H](CCC(=O)O)NC(=O)[C@H](CC(C)C)NC(=O)[C@H](CC(C)C)NC(=O)CNC(=O)[C@H](CO)NC(=O)[C@@H]1CCCN1C(=O)[C@H](CC(=O)O)NC(=O)[C@H](CO)NC(=O)[C@@H](NC(=O)[C@H](Cc1ccccc1)NC(=O)[C@@H](NC(=O)CNC(=O)[C@H](CCC(=O)O)NC(=O)C(C)(C)NC(=O)[C@@H](N)Cc1c[nH]cn1)[C@@H](C)O)[C@@H](C)O)C(=O)N[C@@H](CCC(N)=O)C(=O)N[C@@H](Cc1c[nH]c2ccccc12)C(=O)N[C@@H](CC(C)C)C(=O)N[C@H](C(N)=O)C(C)C
For B6, the “pEC50 hGLPR1” value [1] was 8 -log M and the “pEC50 hSCTR” value [2] was 5.2 -log M.

B7: SEQ ID NO: 128 (peptide)
peptide: H[Aib]EGTFTSDPSYLLEGAALQRFIQWLV-NH2
modifications: N-terminus assumed
SMILES: CC[C@H](C)[C@H](NC(=O)[C@H](Cc1ccccc1)NC(=O)[C@H](CCCNC(=N)N)NC(=O)[C@H](CCC(N)=O)NC(=O)[C@H](CC(C)C)NC(=O)[C@H](C)NC(=O)[C@H](C)NC(=O)CNC(=O)[C@H](CCC(=O)O)NC(=O)[C@H](CC(C)C)NC(=O)[C@H](CC(C)C)NC(=O)[C@H](Cc1ccc(O)cc1)NC(=O)[C@H](CO)NC(=O)[C@@H]1CCCN1C(=O)[C@H](CC(=O)O)NC(=O)[C@H](CO)NC(=O)[C@@H](NC(=O)[C@H](Cc1ccccc1)NC(=O)[C@@H](NC(=O)CNC(=O)[C@H](CCC(=O)O)NC(=O)C(C)(C)NC(=O)[C@@H](N)Cc1c[nH]cn1)[C@@H](C)O)[C@@H](C)O)C(=O)N[C@@H](CCC(N)=O)C(=O)N[C@@H](Cc1c[nH]c2ccccc12)C(=O)N[C@@H](CC(C)C)C(=O)N[C@H](C(N)=O)C(C)C
For B7, the “pEC50 hGLPR1” value [1] was 7.8 -log M and the “pEC50 hSCTR” value [2] was 4.7 -log M.

With H[Aib]EGTFTSDVSYLKEEA[Aib]LQRWLEHLV-NH2 (not fully specified (residue 14)) [SEQ ID NO: 135] the “pEC50 hGLPR1” value [1] was 11.3 -log M and the “pEC50 hSCTR” value [2] was 6.9 -log M.

H[Aib]EGTFTSDVSYLKEEA[Aib]NQRFLEHLV-NH2 (not fully specified (residue 14)) [SEQ ID NO: 131] was tested, and the “pEC50 hGLPR1” value [1] was 11.3 -log M and the “pEC50 hSCTR” value [2] was 5.3 -log M.

For H[Aib]EGTFTSDVSFLKE[Aib]AATQRFLEHLV-NH2 (not fully specified (residue 14)) [SEQ ID NO: 13], the “pEC50 hGLPR1” value [1] was 10.5 -log M and the “pEC50 hSCTR” value [2] was 6.5 -log M.

B8: SEQ ID NO: 122 (peptide)
peptide: H[Aib]EGTFTSDPSELLEGAALQRFIQWLV-NH2
modifications: N-terminus assumed
SMILES: CC[C@H](C)[C@H](NC(=O)[C@H](Cc1ccccc1)NC(=O)[C@H](CCCNC(=N)N)NC(=O)[C@H](CCC(N)=O)NC(=O)[C@H](CC(C)C)NC(=O)[C@H](C)NC(=O)[C@H](C)NC(=O)CNC(=O)[C@H](CCC(=O)O)NC(=O)[C@H](CC(C)C)NC(=O)[C@H](CC(C)C)NC(=O)[C@H](CCC(=O)O)NC(=O)[C@H](CO)NC(=O)[C@@H]1CCCN1C(=O)[C@H](CC(=O)O)NC(=O)[C@H](CO)NC(=O)[C@@H](NC(=O)[C@H](Cc1ccccc1)NC(=O)[C@@H](NC(=O)CNC(=O)[C@H](CCC(=O)O)NC(=O)C(C)(C)NC(=O)[C@@H](N)Cc1c[nH]cn1)[C@@H](C)O)[C@@H](C)O)C(=O)N[C@@H](CCC(N)=O)C(=O)N[C@@H](Cc1c[nH]c2ccccc12)C(=O)N[C@@H](CC(C)C)C(=O)N[C@H](C(N)=O)C(C)C
B8 was tested, and the “pEC50 hGLPR1” value [1] was 8.2 -log M and the “pEC50 hSCTR” value [2] was 5.3 -log M.
